“Also recorded” adds a separate entry of the source.
What was measured:
wild-type AtzA protein = target: T1, wild-type AtzA protein (Pseudomonas sp., UniProt P72156); test: substrate range of wild-type AtzA protein; format: biochemical, Pseudomonas sp. strain ADP
T1 construct: made in house; host or cells: E. coli
Excerpt: Enzyme Kinetics. […] HPLC analysis was done as described above.

[1] = atrazine-degrading activity of AtzA homologs compared with wild type; details: compared with wild-type AtzA or parent homolog
Procedure: Serial dilutions of the transformation reaction were plated onto LB plates containing 50 μg/ml ampicillin, the remainder of the transformation was stored in 25% glycerol and frozen at −80° C.
Environ. Microbiol., 61, 1451-1457 (1995), at a final concentration of 500 μg/ml to produce an opaque suspension of small particles in the clear agar. […] Positive colonies that most rapidly formed the largest clear zones were selected initially for further analysis. The (approximately) 40 best colonies were picked, pooled, grown in the presence of 50 μg/ml ampicillin and plasmid prepared from them.
Enzyme Kinetics. […] The reactions were stopped by boiling the reaction tubes at specific times, the addition of 500 μl acetonitrile and rapid freezing at −80° C. Thawed samples were centrifuged at 14,000 rpm for 10 minutes, the supernatants were filtered through a […] filter, and placed into crimp-seal HPLC vials. HPLC analysis was done as described above.

[2] = TERBUTHYLAZINE-degrading activity of AtzA homologs; format: biochemical; details: compared with wild-type enzyme
Procedure: TERBUTHYLAZINE was incorporated in solid LB medium at a final concentration of about 400-500 μg/ml to produce an opaque suspension of sample particles in the clear agar. […] HPLC analysis was performed with a Hewlett Packard HP 1090 Liquid Chromatograph system equipped with a photodiode array detector and interfaced to an HP 79994A Chemstation. TERBUTHYLAZINE and its metabolites were resolved by using an analytical C^18 reverse-phase Nova-Pak HPLC column (4 μm-diameter spherical packing, 150 by 3.9 mm; Waters Chromatography, Milford, Mass.) and an acetonitrile (ACN) gradient, in water, at a flow rate of 1.0 ml min^−1. Linear gradients of 0 to 6 min, 10 to 25% ACN; 6 to 21 min, 25 to 65% ACN; 21 to 23 min, 65 to 100% ACN; and 23 to 25 min, 100% ACN were used. Spectral data of the column eluent were acquired between 200 and 400 nm (12-nm bandwidth per channel) at a sampling frequency of 640 ms. Spectra were referenced against a signal of 500 nm.
Sample 1 is a control sample without enzyme. […] Sample 3 employed the T7 homolog (SEQ ID NO:6) and Sample 4 employed the A7 homolog (SEQ ID NO:5). Results were determined by HPLC as described above. FIG. 8(a) provides the percentage of TERBUTHYLAZINE remaining after a 15 minute exposure to homologs A7, A11, and T7. Samples 1-10 refer to the effect of homolog activity in the presence of 50 uM of: Manganese (1); Mangnesium (2), EDTA (3); cobalt (4); zinc (5); iron (6); copper (7); nickel (8); no metal (9); or no eznyme (10). FIG. 8(b) provides the relative amount of hydroxyterbuthylazine as a measure of TERBUTHYLAZINE degradation for homologs A7 (solid bar), A11 (hatched bar), or T7 (open bar) in the presence or absence of additives 1-10 (supra).

| Molecule | degradation of substrate by wild-type AtzA protein (in words) (wild-type AtzA protein) | atrazine degradation activity (in words) [1] | TERBUTHYLAZINE degradation activity (in words) [2] |
| --- | --- | --- | --- |
| CCNc1nc(Cl)nc(NC(C)C)n1 [atrazine, 2-chloro-4-(ethylamino)-6-(isopropylamino)-1,3,5-triazine] | acts on |  |  |
| CCNc1nc(Cl)nc(NC(C)(C)C)n1 [TERBUTHYLAZINE, 2-chloro-4-(ethylamino)-6-(tertiarybutyl-amino)-1,3,5-triazine] | only poorly degraded |  |  |
| Nc1nc(N)nc(Cl)n1 [Desethyldesisopropylatrazine, 2-chloro-4,6-diamino-s-triazine] | did not degrade |  |  |
| CCNc1nc(Cl)nc(NCC)n1 [SIMAZINE, 2-chloro-4,6-diethylamino-s-triazine] | acts on |  |  |
| CC(C)Nc1nc(N)nc(Cl)n1 [desethylatrazine, 2-chloro-4-amino-6-isopropylamino-s-triazine] | acts on |  |  |
| Nc1nc(N)nc(N)n1 [MELAMINE, 2,4,6-triamino-s-triazine] | did not degrade |  |  |
| CCNc1nc(N)nc(Cl)n1 [Desisopropylatrazine, 2-chloro-4-ethylamino-6-amino-s-triazine] | acts on |  |  |
| T7: AtzA homolog, gene SEQ ID NO:4, protein SEQ ID NO:6 (protein) SAATAALIMKASMVTLTPLFSFSLLNCTRKASRSVMSASSWLVTCGMTTQLRCRFFDGVISALRRVTHYWRHIMQTLSIQHGTLVTMDQYRRVLGDSWVHVQDGRIVALGVHAESVPPPADRVIDARGKVVLPGFINAHTHVNQILLRGGPSHGRQFYDWLFNVVYPGQKAMRPEDVAVAVRLYCAEAVRSGITTINENADSAIYPGNIEAAMAVYGEVGVRVVYARMFFDRMDGRIQGYVDALKARSPQVELCSIMEETAVAKDRITALSDQYHGTAGGRISVWPAPATTTAVTVEGMRWAQAFARDRAVMWTLHMAESDHDERIHGMSPADYMECYGLLDERLQVAHCVYFDRKDVRLLHRHNVKVASQVVSNAYLGSGVAPVPEMVERGMAVGIGTDNGNSNDSVNMIGDMKFMAHIHRAVHRDADVLTPEKILEMATIDGARSLGMDHEIGSIETGKRADLILLDLRHPQTTPHHHLAATIVFQAYGNEVDTVLIDGNVVMENRRLSFLPPERELAFLEEAQSRATAILQRANMVANPAWRSLEMTPLLHPPPLEEIAAILARLGLGGGHDLDGYRIAMNAALPSFARVESLVGEGRLRAPASRRSERPE |  | enhanced atrazine degradation activity | better than the wild-type enzyme; also recorded: enhanced TERBUTHYLAZINE degradation activity |
| A40: AtzA homolog, nucleic acid SEQ ID NO:17, amino acid SEQ ID NO:22 (protein) MQTLSIQHGTLVTMDQYRRVLGDSWVHVQDGRIVALGVHAKSVPPPADRVIDARGKVVLPGFINAHTHVNQILLRGGPSHGRQFYDWLFNVVYPGQKAMRPEDVAVAVRLYCAEAVRSGITTINENADSAIYPGNIEAAMAVYGEVGVRVVYARMFFDRMDGRIQGYVDALKARSPQVELCSIMEETAVAKDRITALSDQYHGTAGGRISVWPAPATTTAVTVEGMRWAQAFARDRAVMWTLHMAESDHDGRIHGMSPAEYMECYGLLDERLQVAHCVYFDRKDVRLLHRHNVKVASQVVSNAYLGSGVAPVPEMVERGMAVGIGTDNGNSNDSVNMIGDMKFMAHIHRAVHRDADVLTPEKILEMATIDGARSLGMDHEIGSIETGKRADLILLDLRHPQTTPHHHLAATIVFQAYGNEVDTVLIDGNVVMENRCLSFLPPERELAFLEGAQSRATAILQRANMVANPAWRSLEMTPLLHPPPLEEIAAILARLG |  | improved rate of catalytic activity |  |
| A60: AtzA homolog, nucleic acid SEQ ID NO:21, amino acid SEQ ID NO:26 (protein) MQTLSIQHGTLVTMDQYRRVLGDSWVHVQDGRIVALGVHAESVPPPADRVIDARGKVVLPGFINAHTHVNQILLRGGPSHGRQFYDWLFNVVYPGQKAMRPEDVAVAVRLYCAEAVRSGITTINENADSAIYPGNIEAAMAVYGEVGVRVVYARMFFDRMDRRIQGYVDALKARSPQVELCSIMEETAVAKDRITALSDQYHGTAGGRISVWPAPATTTAVTVEGMRWAQAFARDRAVMWTLHMAESDHDERIHGMSPAEYMECYGLLDERLQVAHCVYFDRKDIRLLHRHNVKVASQAVSNAYLGSGVAPVPEMVERGMAVGIGTDNGNSNDSVNMIGDMKFMAHIHRAVHRDADVLTPEKILEMATIDGARSLGMDHEIGSIETGKRADLILLDLRHPQTTPHHHLAATIVFQAYGNEVDTVLIDGNVVMENRRLSFLPPERELAFLEEAQSRATAILQRANMVANPAWRSLEMTPLLHPPPLEEIAAILAQLG |  | improved rate of catalytic activity | capable of better degrading |
| A46: AtzA homolog, nucleic acid SEQ ID NO:20, amino acid SEQ ID NO:25 (protein) MQTLSIQHGTLVTMDQYRRVLGDSWVHVQDGRIVALGVHAESVPPPADQVIDARGKVVLPGFINAHTHVNQILLRGGPSHGRQFHDWLFNVVYPGQKAMRPEDVAVAVRLYCAEAVRSGITTINENADSAIYPGNIEAAMAVYGEVGVRVVYARMFFDRMDGRIQGYVDALKARSPQVELCSIMEETAVAKDRITALSDQYHGTAGGRISVWPAPATTTAVTVEGMRWAQAFARDRAVMWTLHMAESDHDGRIHGMSPAEYMECYGLLDERLQVAHCVYFDRKDVRLLHRHNVKVASQVVSNAYLGSGVAPVPEMVERGMAVGIGTDNGNSNDSVNMIGDMKFMAHIHRAVHRDADVLTPEKILEMATIDGARSLGMDHEIGSIETGKRADLILLDLRHPQTTPHHHLAATIVFQAYGNEVDTVLIDGNVVMENRRLSFLPPERELAFLEEAQSRATAILQRANMVANPAWRSLEMTPLLHPPPLEEIAAILARLG |  | improved rate of catalytic activity | capable of better degrading |
| A42: AtzA homolog, nucleic acid SEQ ID NO:18, amino acid SEQ ID NO:23 (protein) MQTLSIQHGTLVTMDQYRRVLGDSWVHVQDGRIVALGVHAESVPPPADRVIDARGKVVLPGFINAHTHVNQILLRGGPSHGRQFYDWLFNVVYPGQKAMRPEDVAVAVRLYCAEAVRSGITTINENADSAIYPGNIEAAMAVYGEVGVRVVYARMFFDRMDGRIQGYVDALKARSPQVELCSIMEETAVAKDRITALSDQYHGTAGGRISVWPAPATTTAVTVEGMRWAQAFARDRAVMWTLHMAESDHDERIHGMSPAEYMECHGLLDERLQVAHCVYFDRKDVRLLHRHNVKVASQVVSNAYLGSGVAPVPEMVERGMAMGIGTDNGNSNDSVNMIGDMKFMAHIHRAVHRDADVLTPEKILEMATIDGARSLGMDHEIGSIETGKRADLILLDLRHPQTTPHHHLAATIVFQAYGNEVDTVLIDGNVVMENRRLSFLPPERELAFLEEAQSRATAILQRANMVANPAWRSLEMTPLLHPPPLEEIAAILARLG |  | improved rate of catalytic activity | capable of better degrading |
| A44: AtzA homolog, nucleic acid SEQ ID NO:19, amino acid SEQ ID NO:24 (protein) MQTLSIQHGTLVTMDQYRRVLGDSWVHVQDGRIVALGVHAESVPPPADRVIDARGKVVLPGFINAHTHVNQILLRGGPSHGRQFYDWLFNVVYPGQKAMRPEDVAVAVRLYCAEAVRSGITTINENADSAIYPGNIEAAMAVYGEVGVRVVYARMFFDRMDGRIQGYVDALKARSPQVELCSIMEETAVAKDRITALSDQYHGTAGGRISVWPAPATTTAVTVEGMRWAQAFARDRAVMWTLHMAESDHDERIHGMSPAEYMECYGLLDERLQVAHCVYFDRKDVRLLHRHNVKVASQVVSNAYLGSGVAPVPEMVERGMAVGIGTDNGNSNDSVNMIGDMKFMAHIHRAVHRDADVLTPEKILEMATIDGARSLGMDHEIGSIETGKRADLILLDLRHPQTTPHHHLAATIVFQAYGNEVDTVLIDGNVVMENRRLSFLPPERELAFLEEAQSRATAILQRANMVANPAWRSLEMTPLLHPLPLEEIAAILARLG |  | improved rate of catalytic activity | capable of better degrading |

Source: patent US6825001B2, “DNA molecules and protein displaying improved triazine compound degrading ability” (Regents of the University of Minnesota, priority 1997, dated 2004)
